Results as given in a protein production outcome set (Wang et al. 2014).

assay: label from the status in PepcDB records

Sequence | protein production
MSLQLLIAQVLLLLLGSLGISAAAPDLIVKHGLRALLAVALTFAVARIRPRTLLKWGTNVWIVALVLLVLVLFIGQGSQDSPGVRRWLSIAGQEFQPSEFAKLALVLQLASFFSRRGVQNKLLSATGMIIATTALVIFEPDLGTSVLTFGLGIIVMYAAGVRLFNIGGLVLALGLFSLPFVNSYLESHPYILKRWTGHQVRDDGVVTGLDQIGMAHRDLNYGGWWGQGPDGPRWEYFAAHTDMVVAAVGFSSGLLGVLTLLFAYWLIVSTALQVAQLATRIRPMSAEIHGASILAIGCMFLVVGQAFVNLAVAAGLFPVTGVPLPLVSYGFSSMLTMSVALGIIHSAMREVRRQLPVEVKMDDFVGAAADD | failed
MSLRARIHSPEEHGSRGEDGHLVASYRAKLLEEIDLAEMSALATAERRARLERVLGHIISREGPVLSTVERSQLIRRVVDEALGLGILEPLLEDASITEIMVNGPDAIFVERAGRVEQLPLRFASHDQLMQTIERIVSTVNRRVDESNPMVDARLPSGERVNVIIPPLSLTGATLTIRRFPRSFTLQELIGLGSLDENMLYLLAGLVQARFNIIVSGATGTGKTTLLNALSGLIPESDRIITIEDSAELQLQQAHVIRLESRPPNVEGQGRITIRDLVRNSLRMRPDRIVVGEVRGGESLDMLQAMSTGHDGSLATVHANSAEDALMRLQTLASMSDVEIPFVALHDQINSSVDVLIQLTRFADGARRITEIALLASHGGEPYRLATVARFNARPMSADGRVVGAYEYHPLPHRTAERLYMAGQPIPQAFGVAHTPDQLTTREAR | failed
MSLRGELRVGLEPGYLPFEMKDKKGNVIGFDVDLAREMAKAMGVKLKLVPTSWDGLIPGLVTEKFDIIISGMTISQERNLRVNFVEPYIVVGQSLLVKKGLEKGVKSYKDLDKPELTLVTKFGVSAEYAAKRLFKNAKLKTYDTEAEAVQEVLNGKADMFIFDLPFNVAFMAQKGQGYLVHLDTSLTYEPLGWAIKKGDPDFLNWLNHFLAQIKHDGSYDELYERWFVDTKWLEKIQEGHHHHHH | not failed
MSLRLADFGFTDGINEIIAITENEDGSWNAAPIGIIVEDSSSDTAKAKLYRNRTRANLERSGVLFANVTDDALVFAVSSFGNLNDDWYASPNPPIIKGAMAWCRFEAEMRSGVAHLKLTDGEIIEKRVRAINRGLSAVIEALVHATRYVAIKSDERRKELLERIHYYREIVQKCGSEREKRAFEIIMEKIGEGHHHHHH | not failed
MSLRVILFDLDGTLIDSAKDIALALEKTLKELGLEEYYPDNVTKYIGGGVRALLEKVLKDKFREEYVEVFRKHYLENPVVYTKPYPEIPYTLEALKSKGFKLAVVSNKLEELSKKILDILNLSGYFDLIVGGDTFGEKKPSPTPVLKTLEILGEEPEKALIVGDTDADIEAGKRAGTKTALALWGYVKLNSQIPDFTLSRPSDLVKLMDNHIVEFEGHHHHHH | not failed
MSLSAMPAALSFAGLAGWAEEDHLAALNAFRAGCGVSKDPAAARVCGLAKATKDLDVSGAKAFIEANFRVEAVDGGGDGLLTAYFAPQYEARMSRNAEFSAPLRGLPADLVVLDLGPFEPALVGKKITGHVEGSTFVPYPDRAEIEATPSDKPLAWMRPEELFFLQIQGSGVLVLPDGRRVRAVFAGTNGKPFVGIAIAMRDKGLLPDNNTSADAIRTWLAEHRGPEADAIMRLNPRYVFFRTVPDDGKEPAGAAGVALPPGRAIAVDPGYHAYGGFYWLDAAAPKLVGAFPVYRRAVTALDTGGAIKGEVRADLYMGSGAVAGVEAGRVRHTLRLYRLTPNPEGHHHHHH | not failed
MSLSDDSTFGDATFVVLDFETTGLDPQVDEIIEIGAVKIQGGQIVDEYHTLIKPSREISRKSSEITGITQEMLENKRSIEEVLPEFLGFLEDSIIVAHNANFDYRFLRLWIKKVMGLDWERPYIDTLALAKSLLKLRSYSLDSVVEKLGLGPFRHHRALDDARVTAQVFLRFVEMMKKEGHHHHHH | not failed
MSLSEYRRKRSFDKTREPEPGKTLPPGQRAIFVVQLHHASRRHYDFRLQVGDALKSWAVPKGPSYDPKVKRMAVEVEDHPVDYASFEGEIPRGEYGGGHVAQFDHGVWATAGDPEAQLAKGHLRFELFGNKLKGGWHLVRSGKPARQPQWLLFKEDDAYAGTLEADDLLADVAATPADDVRRAGAGKTQRKGLTTVPPPAAKKRGTWAKQALALSGARRAEMEDAPFAPQLAKLVQSPPEGAQWLHEIKWDGYRILATVTNGKVRLWSRNALEWTDKTPEIADAIQSLGLRNAQIDGELIAGRGTKEDFNLLQATLSGERQVPLALAVFDLLHVDGVDISEAPLRERKQLLQQVLQAAPHMHLAYSSHVEGDGTEAFRVAGEQHFEGIISKRADRPYRDGRSDDWRKTKQLASQEYAVVGYTAPKGSRSGFGSLLLATPDPVHGWLYVGRVGSGFSDALMREVTQQLEGGGRKPTAHIPTPDTDLRGATWFAPRFVVEVFYRGIGGQQLLRQASFKALRPDKRIADLADSDAGNGRSTSSSTQRSAKTRAAKNAATQVAKRAATRATAPARKSAVATPSSAALPTLSSPTKLIYPDIRATKGDVWDYYQAVMDHLLPQIVGRPLSIIRCPSGAEKPCFFQKHHTAGLERVSSVKLTEETGTNAYYLVIEDAPGLLELVQFNALEFHPWGSHADRPDVADRVVFDLDPGPDVPFAEVKRAANDIRKLLAQLELESFLRVSGGKGLHVVVPLNPGCDWEVTKRFAKGFADALAQAEPQRFIATATKRLRNKRIFVDYLRNGRGATAVASYPLRGRPGAPVALPLAWSDLSKLQRADAFTLRDVPEKLRRRRKDPWADMDRIRQNLARWAEQDED | failed
MSLSFTPLHTTSEAFIEKALPWLEDRYFHIAYLNPNGYTAYPQGAFRHYLAFGSEAAIHVSDATRVFETWNEIKKGYTNEWIFVFASYDGKNSVEQLHTSKEAGIAFAAATFFIPEHVWEIQPDGILIHKGSGSSLVTEIQHAEPSTPVQQSDIFVKQVVSKESYFNAFDELQQIIAQGDAYEINYCIPFTAKGNISPAATYQRLNKKTPMPFSVYYKFNTEYILSASPERFIKKTGDTIISQPIKGTSKRGKSKAEDEMLKQQLGTSEKEQSENTMIVDLVRNDLSRTAVAGSVCVPELSGLYTFPNVHQLISTVQSTIDPACSSIDVIQQAFPMGSMTGAPKVNVMKFIDRIESMARGPFSGTVGYMDPHDNFDFNVLIRSIFYNSATQELFMEAGSAITSYAKAETEYEECLLKITPMIHILNNQEGHHHHHH | not failed
MSLSGTDIHTSDYYFLFEEKFRGSRELVKARLRRYIPYFKGCRRVLDIGCGRGEFLELCKEEGIESIGVDINEDMIKFCEGKFNVVKSDAIEYLKSLPDKYLDGVMISHFVEHLDPERLFELLSLCYSKMKYSSYIVIESPNPTSLYSLINFYIDPTHKKPVHPETLKFILEYLGFRDVKIEFFEECEELTKLAKIDSNTVSEEVIRVINENIEKLNRILFGPQDYAIIAKKEGHHHHHH | not failed
MSLSIVSYYGSQQSKCGYCAGANCSLSHGMHAYQLDCRDYQDLIDRGWRRCGYYCYKLRNQETCCPCYTIKCNGLEFKLSKSNKRILRRINRFLRDGKRESKPEAGDGDGEADADYAIVAPEVTASEPQPQLPDKSPPVINVEQVASLATAQRKPTKQATAAAVEAPTLGSNKSSLLSSSAAAPISNKPCKKAKQMRLDRRLAKLGDSASYSTKSLTQEKTLRDFLNTDSETNKHRLKLRLIHVYDDEFRRTLPQSFALYKKYQISIHNDPPKDQDAYKEHLQATPLQNEKPWDGPEMGYGSFHQQYWLDDKLIAVGVIDILPGCVSSVYFFYDPDYSFLSLGTYGSLREIELVQSLAEKVPSLKYYYMGFYIHSCPKMRYKGKLSPSYLLCPETYEWLPLTDVIRAKLDEHKYQRLNEDPAARDVNEFLMEHLDEVKLLLGGRTRTDYKHFRQLRGTVSDDDIIIEYSKLVGKECARRMLYVK | failed
MSLSKDNIWKLLAPLVVMGVMLLIPVPDGMPPQAWHYFAVFVAMIVGMILEPIPATAISFIAVTICVIGSNYLLFDASELADPAFKASKQALKWGLAGFSSTTVWLVFGAFIFALGYEVTGLGRRIALFLVKFMGKRTLTLGYAIVIIDILLAPFTPSNTARTGGTVFPVIKNLPPLFKSFPNDPSARRIGGYLMWMMVISTSLSSSMFVTGAAPNVLGLEFVSKIAGVQISWLQWFLSFLPVGIILLIVAPWLSYVLYKPEVTHSAEVAAWAGGELKNMGRLSRKEWTLIGLVLLSLGLWVFGGKIINATAVGLLAVSLMLALHVVPWKDITRYNSAWNTLVNLATLVVMANGLTRSGFIDWFANTMSTHLEGFSPDATVIVLVLVLVLVLVLVLVLVLVLVLVLVLVLVFYFAHYLFASLSAHTATMLPVILAVGKGIPGVPMEQLCILLVLSIGIMGCLTPYATGPGVIIYGCGYVKSRDYWRLGAIFGVIYIAMLLLVGWPILAMWN | failed
MSLSLLLQQHLSQPWRFLDHTSFGPTFQALQSFAYDDTLCTSIGKSQSPPTLRAWVHHNTVVLGIQDSRLPQIKAGIEALKGFQHDVIVRNSGGLAVVLDSGILNLSLVLKEEKGFSIDDGYELMYELICSMFQDHREQIEAREIVGSYCPGSYDLSIDGKKFAGISQRRIRGGVAVQIYLCVSGSGAERAKMIRTFYDKAVAGQPTKFVYPRIKPETMASLSELLGQPHNVSDVLLKALMTLQQHGASLLTESLSADEWLLYEQHFARISERNEKLLAEEGHHHHHH | not failed
MSLSLLVIGSLAFDDIETPFGRSDNTLGGSSTYIALSASYFTDEPIRMVGVVGSDFGKEHFDLLHAKNIDTRGIQVIEDGKTFRWAGRYHYDMNTRDTLDTQLNVFAEFDPHVPQYYRDSKFVCLGNIDPELQLKVLDQIDDPKLVVCDTMNFWIEGKPEELKKVLARVDVFIVNDSEARLLSGDPNLVKTARIIREMGPKTLIIKKGEHGALLFTDNGIFAAPAFPLESIYDPTGAGDTFAGGFIGHLARCGNTSEAEMRKAVLYGSAMASFCVEQFGPYRYNDLDLLEVDDRYQSFLELSRIEEGHHHHHH | not failed
MSLSLYDSAHSLDGKSGWDTPVFSMKDSMDRNPMVTEAWEALCQSQVYFRGKPVGTIAAYDHASEEVLNYDQVFVRDFVPSALAFLMNGEPEIVKNFLLKTLHIQGQDKMIDKFKLGDGAMPASFKVLHNPIKKTDTIIADFGESAIGRVAPVDSGFWWIILLRAYTKSTGDHSLAERPECQKGMRLILSLCLSEGFDTFPTLLCADGCSMVDRRMGIYGYPIEIQALFFMALRSALSMLKHDSEGKEFMEKIVKRLHALSFHMRSYFWLDFQQLNDIYRYKTEEYSHTAVNKFNVIPDSIPDWIFDFMPLRGGYFVGNVSPARMDFRWFALGNCIAILSSLATPEQSMAIMDLIEARWEELVGEMPLKICYPAMESHEWGIVTGCDPKNTRWSYHNGGSWPVLLWLLTAASIKTGRPQIARRAIELAEARLLKDGWPEYYDGKSGRFIGKQARKSQTWSIAGYLVAKMMMDDPTHVGMISMEEEKHMKPPLRRSSSWT | failed
